Measurements published in article PMC10547473.
Like-named read-outs stand apart in the source and are kept apart here.

Substance: TFEB: 3xSA-TR (S134A, S138A, S142A)
- localisation_or_trafficking (phosphorylation at S134): decreases
- localisation_or_trafficking (phosphorylation at S138): decreases
- localisation_or_trafficking (phosphorylation at S142): decreases

Substance: TFEB: 5xSA-TR (S122A, S134A, S138A, S142A, S211A)
- localisation_or_trafficking (phosphorylation at S122): abolishes
- localisation_or_trafficking (phosphorylation at S134): abolishes
- localisation_or_trafficking (phosphorylation at S138): abolishes
- localisation_or_trafficking (phosphorylation at S142): abolishes
- localisation_or_trafficking (phosphorylation at S211): abolishes
